Article PMC7683652 (Nature Communications, 2020)

Biological target: the molecule itself
Assay: SEC; size exclusion chromatography of the truncated TDP-43 proteins against molecular weight standards (Supplementary Fig. 3a); conditions not shown

B1: TDP-43 N-terminal region (aa 1-100) (domain or fragment, UniProt Q13148 1-100, looked up)
chain: MSEYIRVTEDENDEPIEIPSEDDGTVLLSTVTAQFPGACGLRYRNPVSQCMRGVRLVEGILHAPDAGWGNLVYVVNYPKDNKRKMDETDASSAVKVKRAV
notes: the methods say aa; 1-101; calculated 12.5 kDa; C-terminal limit is printed as 100 (results, legend) and as 101 (methods); also called N-terminal TDP-43; source: E. coli M15 (pQE30), purified (Ni-NTA)
stoichiometry N: 2
